Measurements taken from patent US20160009806A1 (Seagen, published 2016).

molecular target: T1, human integrin αvβ6 on cells (human, UniProt P06756 31-1048; P18564 22-788); assay: competition binding, flow cytometry on 293F cells expressing αvβ6; competitor 2 nM AlexaFluor-647 m15H3
T1 construct: whole, on cells; also called HEK293F:huβ6
Experimental: (§1) 1×10⁵ antigen expressing cells were aliquoted in each well of a 96-well v-bottom plate on ice. […] Cells were pelleted and washed 3 times with PBS. The cells were pelleted and resuspended in 125 uL of PBS/BSA. Fluorescence was analyzed by flow cytometery, using percent of saturated fluorescent signal to determine percent labeled murine 15H3 bound and to subsequently extrapolate the EC50 by fitting the data to a sigmoidal dose-response curve with variable slope.

T1 sequence (P06756 31-1048, chain 1 of 2): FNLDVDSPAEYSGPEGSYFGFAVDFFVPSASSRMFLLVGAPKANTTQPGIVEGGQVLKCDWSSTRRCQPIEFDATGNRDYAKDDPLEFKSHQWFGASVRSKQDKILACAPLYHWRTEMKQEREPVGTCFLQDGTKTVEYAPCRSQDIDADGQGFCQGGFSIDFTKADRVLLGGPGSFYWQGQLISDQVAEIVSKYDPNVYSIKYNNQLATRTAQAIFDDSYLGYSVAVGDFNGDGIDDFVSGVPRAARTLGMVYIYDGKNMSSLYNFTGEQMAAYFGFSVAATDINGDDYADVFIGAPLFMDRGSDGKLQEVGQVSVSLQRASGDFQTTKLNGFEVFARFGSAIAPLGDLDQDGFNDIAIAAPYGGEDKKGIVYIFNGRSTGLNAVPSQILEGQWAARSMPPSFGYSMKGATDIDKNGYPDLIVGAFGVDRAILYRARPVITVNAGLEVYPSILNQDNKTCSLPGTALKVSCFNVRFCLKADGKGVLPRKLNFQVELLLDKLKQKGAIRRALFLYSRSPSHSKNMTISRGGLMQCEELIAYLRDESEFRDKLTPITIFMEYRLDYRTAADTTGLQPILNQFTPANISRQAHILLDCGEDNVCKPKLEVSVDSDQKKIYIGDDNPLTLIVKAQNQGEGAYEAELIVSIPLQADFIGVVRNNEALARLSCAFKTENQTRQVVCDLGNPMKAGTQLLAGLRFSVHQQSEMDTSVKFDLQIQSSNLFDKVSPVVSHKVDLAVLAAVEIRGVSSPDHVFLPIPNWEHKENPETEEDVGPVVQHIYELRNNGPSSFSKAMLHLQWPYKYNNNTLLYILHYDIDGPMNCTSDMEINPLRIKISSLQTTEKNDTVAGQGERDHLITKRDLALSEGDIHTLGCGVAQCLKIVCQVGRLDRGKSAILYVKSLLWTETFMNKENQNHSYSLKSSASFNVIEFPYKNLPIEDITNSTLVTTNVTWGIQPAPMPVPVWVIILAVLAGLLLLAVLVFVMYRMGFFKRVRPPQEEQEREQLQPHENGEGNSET
T1 sequence (P18564 22-788, chain 2 of 2): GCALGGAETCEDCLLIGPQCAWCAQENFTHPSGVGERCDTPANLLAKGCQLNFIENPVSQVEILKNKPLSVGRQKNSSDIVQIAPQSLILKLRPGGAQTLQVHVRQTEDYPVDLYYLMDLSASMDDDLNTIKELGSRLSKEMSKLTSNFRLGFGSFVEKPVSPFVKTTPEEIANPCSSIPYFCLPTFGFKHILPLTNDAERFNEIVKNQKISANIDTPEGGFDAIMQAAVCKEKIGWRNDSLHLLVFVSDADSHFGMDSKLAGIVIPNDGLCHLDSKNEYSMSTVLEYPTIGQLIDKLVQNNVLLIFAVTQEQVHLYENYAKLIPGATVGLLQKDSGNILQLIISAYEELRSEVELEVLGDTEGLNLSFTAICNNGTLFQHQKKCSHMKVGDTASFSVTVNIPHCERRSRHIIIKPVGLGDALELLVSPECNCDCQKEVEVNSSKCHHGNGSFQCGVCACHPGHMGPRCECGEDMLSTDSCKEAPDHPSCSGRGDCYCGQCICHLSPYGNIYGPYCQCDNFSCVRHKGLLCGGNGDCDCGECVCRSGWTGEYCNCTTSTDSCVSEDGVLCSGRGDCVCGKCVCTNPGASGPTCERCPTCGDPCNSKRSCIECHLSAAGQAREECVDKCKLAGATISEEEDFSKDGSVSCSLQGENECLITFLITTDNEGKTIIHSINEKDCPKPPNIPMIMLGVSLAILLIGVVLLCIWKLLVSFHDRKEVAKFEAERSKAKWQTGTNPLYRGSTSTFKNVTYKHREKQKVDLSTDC

Binder | EC50 [nM]
humanized 15H3 antibody HLLC (antibody, V domains shown, also called h15H3-2) VH: QVQLVQSGAEVKKPGASVKVSCKASGYSFSGYFMNWVRQAPGQGLEWMGLINPYNGDSFYNQKFKGRVTMTRDKSSSTAYMELSSLRSEDTAVYYCARGLRRDFDYWGQGTLVTVSS VL: DVVMTQSPLSLPVTLGQPASISCKSSQSLLDSDGKTYLNWLFQRPGQSPRRLIYLVSELDSGVPDRFSGSGSGTDFTLKISRVEAEDVGVYYCWQGTHFPRTFGGGTKLEIKR | 0.74
humanized 15H3 antibody HLLG (antibody, V domains shown) VH: QVQLVQSGAEVKKPGASVKVSCKASGYSFSGYFMNWVRQAPGQGLEWMGLINPYNGDSFYNQKFKGRVTMTRDKSSSTAYMELSSLRSEDTAVYYCARGLRRDFDYWGQGTLVTVSS VL: DVVLTQSPLSLPVTLGQPASISCKSSQSLLDSDGKTYLNWLFQRPGQSPRRLIYLVSELDSGVPDRFSGSGSGTDFTLKISRVEAEDVGVYYCWQGTHFPRTFGGGTKLEIKR | 0.97
humanized 15H3 antibody HMLC (antibody, V domains shown) VH: QVQLVQSGAEVKKPGASVKVSCKASGYSFSGYFMNWVRQAPGQGLEWMGLINPYNGDSFYNQKFKGRVTMTRQKSSSTAYMELSSLRSEDTAVYYCARGLRRDFDYWGQGTLVTVSS VL: DVVMTQSPLSLPVTLGQPASISCKSSQSLLDSDGKTYLNWLFQRPGQSPRRLIYLVSELDSGVPDRFSGSGSGTDFTLKISRVEAEDVGVYYCWQGTHFPRTFGGGTKLEIKR | 0.49
humanized 15H3 antibody HMLG (antibody, V domains shown) VH: QVQLVQSGAEVKKPGASVKVSCKASGYSFSGYFMNWVRQAPGQGLEWMGLINPYNGDSFYNQKFKGRVTMTRQKSSSTAYMELSSLRSEDTAVYYCARGLRRDFDYWGQGTLVTVSS VL: DVVLTQSPLSLPVTLGQPASISCKSSQSLLDSDGKTYLNWLFQRPGQSPRRLIYLVSELDSGVPDRFSGSGSGTDFTLKISRVEAEDVGVYYCWQGTHFPRTFGGGTKLEIKR | 1.07
humanized 15H3 antibody HNLC (antibody, V domains shown) VH: QVQLVQSGAEVKKPGASVKVSCKASGYSFSGYFMNWVRQAPGQGLEWMGLINPYNGDSFYNQKFKGRVTMTRQTSTSTVYMELSSLRSEDTAVYYCARGLRRDFDYWGQGTLVTVSS VL: DVVMTQSPLSLPVTLGQPASISCKSSQSLLDSDGKTYLNWLFQRPGQSPRRLIYLVSELDSGVPDRFSGSGSGTDFTLKISRVEAEDVGVYYCWQGTHFPRTFGGGTKLEIKR | 11.1
humanized 15H3 antibody HNLG (antibody, V domains shown) VH: QVQLVQSGAEVKKPGASVKVSCKASGYSFSGYFMNWVRQAPGQGLEWMGLINPYNGDSFYNQKFKGRVTMTRQTSTSTVYMELSSLRSEDTAVYYCARGLRRDFDYWGQGTLVTVSS VL: DVVLTQSPLSLPVTLGQPASISCKSSQSLLDSDGKTYLNWLFQRPGQSPRRLIYLVSELDSGVPDRFSGSGSGTDFTLKISRVEAEDVGVYYCWQGTHFPRTFGGGTKLEIKR | 3.16
humanized 15H3 antibody HRLC (antibody, V domains shown) VH: QVQLVQSGAEVKKPGASVKVSCKASGYSFSGYFMNWVRQAPGQGLEWMGLINPYNGDSFYNQKFKGRVTMTRDTSSSTAYMELSSLRSEDTAVYYCARGLRRDFDYWGQGTLVTVSS VL: DVVMTQSPLSLPVTLGQPASISCKSSQSLLDSDGKTYLNWLFQRPGQSPRRLIYLVSELDSGVPDRFSGSGSGTDFTLKISRVEAEDVGVYYCWQGTHFPRTFGGGTKLEIKR | 26.7
humanized 15H3 antibody HRLG (antibody, V domains shown) VH: QVQLVQSGAEVKKPGASVKVSCKASGYSFSGYFMNWVRQAPGQGLEWMGLINPYNGDSFYNQKFKGRVTMTRDTSSSTAYMELSSLRSEDTAVYYCARGLRRDFDYWGQGTLVTVSS VL: DVVLTQSPLSLPVTLGQPASISCKSSQSLLDSDGKTYLNWLFQRPGQSPRRLIYLVSELDSGVPDRFSGSGSGTDFTLKISRVEAEDVGVYYCWQGTHFPRTFGGGTKLEIKR | 23.9
humanized 15H3 antibody HSLC (antibody, V domains shown) VH: QVQLVQSGAEVKKPGASVKVSCKASGYSFSGYFMNWVRQAPGQGLEWMGLINPYNGDSFYNQKFKGRVTMTRQTSSSTAYMELSSLRSEDTAVYYCARGLRRDFDYWGQGTLVTVSS VL: DVVMTQSPLSLPVTLGQPASISCKSSQSLLDSDGKTYLNWLFQRPGQSPRRLIYLVSELDSGVPDRFSGSGSGTDFTLKISRVEAEDVGVYYCWQGTHFPRTFGGGTKLEIKR | 32.5
humanized 15H3 antibody HULC (antibody, V domains shown) VH: QVQLVQSGAEVKKPGASVKVSCKASGYSFSGYFMNWVRQAPGQGLEWMGLINPYNGDSFYNQKFKGRVTMTRQKSSSTAYMELSSLRSEDTAVYYCVRGLRRDFDYWGQGTLVTVSS VL: DVVMTQSPLSLPVTLGQPASISCKSSQSLLDSDGKTYLNWLFQRPGQSPRRLIYLVSELDSGVPDRFSGSGSGTDFTLKISRVEAEDVGVYYCWQGTHFPRTFGGGTKLEIKR | 0.93

molecular target: T1, human integrin αvβ6 on cells; assay: cell-based or functional assay

Binder | IC50 (ng/ml), cytotoxicity assay on 5637 cells (36 x10^3 αvβ6 copies/cell) [ng/mL] | IC50 (ng/ml), cytotoxicity assay on BxPC3 cells (37 x10^3 αvβ6 copies/cell) [ng/mL] | IC50 (ng/ml), cytotoxicity assay on Capan-1 cells (19 x10^3 αvβ6 copies/cell) [ng/mL] | IC50 (ng/ml), cytotoxicity assay on HPAFII cells (22 x10^3 αvβ6 copies/cell) [ng/mL] | IC50 (ng/ml), cytotoxicity assay on HupT4 cells (184 x10^3 αvβ6 copies/cell) [ng/mL] | IC50 (ng/ml), cytotoxicity assay on Panc08.13 cells (137 x10^3 αvβ6 copies/cell) [ng/mL] | IC50 (ng/ml), cytotoxicity assay on RT4 cells (42 x10^3 αvβ6 copies/cell) [ng/mL] | IC50 (ng/ml), cytotoxicity assay on SW780 cells (80 x10^3 αvβ6 copies/cell) [ng/mL]
murine 15H3 antibody conjugated with vcMMAE (antibody, V domains shown, vcMMAE drug-linker conjugated to the antibody (site and loading not stated for the murine ADC)) VH: EVQLQQSGPELVKPGASVKISCKASGYSFSGYFMNWVKQSHGQSLEWIGLINPYNGDSFYNQKFKGKATLTVQKSSSTAHMELQSLTSEDSAVFYCVRGLRRDFDYWGQGTPLTVSS VL: not shown | > 1000 | 34 | 365 | 76 | 35 | 93 | > 1000 | 614
murine 15H3 antibody conjugated with mcMMAF (antibody, V domains shown, mcMMAF drug-linker conjugated to the antibody (site and loading not stated for the murine ADC)) VH: EVQLQQSGPELVKPGASVKISCKASGYSFSGYFMNWVKQSHGQSLEWIGLINPYNGDSFYNQKFKGKATLTVQKSSSTAHMELQSLTSEDSAVFYCVRGLRRDFDYWGQGTPLTVSS VL: not shown | > 1000 | 7 | 1510 | > 2000 | 16 | 1400 | > 1000 | 86

molecular target: T1, human integrin αvβ6 on cells; assay: competition binding on 293F cells expressing human αvβ6 (FIG. 2)
Experimental: as §1

Binder | binding result
humanized 15H3 antibody HBLA (antibody, V domains shown, HB heavy chain with LA light chain of the first humanization round) VH: QVQLVQSGAEVKKPGASVKVSCKASGYSFSGYFMNWVRQAPGQGLEWMGLINPYNGDSFYNQKFKGRVTMTRDTSTSTVYMELSSLRSEDTAVYYCARGLRRDFDYWGQGTLVTVSS VL: DVVMTQSPLSLPVTLGQPASISCKSSQSLLDSDGKTYLNWFQQRPGQSPRRLIYLVSELDSGVPDRFSGSGSGTDFTLKISRVEAEDVGVYYCWQGTHFPRTFGGGTKLEIKR | binds
humanized 15H3 antibody HBLB (antibody, V domains shown, HB heavy chain with LB light chain of the first humanization round) VH: QVQLVQSGAEVKKPGASVKVSCKASGYSFSGYFMNWVRQAPGQGLEWMGLINPYNGDSFYNQKFKGRVTMTRDTSTSTVYMELSSLRSEDTAVYYCARGLRRDFDYWGQGTLVTVSS VL: DVVMTQSPLSLPVTLGQPASLFCKSSQSLLDSDGKTYLNWFQQRPGQSPRRLIYLVSELDSGVPDRFSGSGSGTDFTLKISRVEAEDVGVYYCWQGTHFPRTFGGGTKLEIKR | binds
humanized 15H3 antibody HBLD (antibody, V domains shown, HB heavy chain with LD light chain of the first humanization round) VH: QVQLVQSGAEVKKPGASVKVSCKASGYSFSGYFMNWVRQAPGQGLEWMGLINPYNGDSFYNQKFKGRVTMTRDTSTSTVYMELSSLRSEDTAVYYCARGLRRDFDYWGQGTLVTVSS VL: DVVMTQSPLSLPVTLGQPASISCKSSQSLLDSDGKTYLNWFQQRPGQSPKRLIYLVSELDSGVPDRFSGSGSGTDFTLKISRVEAEDVGVYYCWQGTHFPRTFGGGTKLEIKR | binds
humanized 15H3 antibody HBLE (antibody, V domains shown, HB heavy chain with LE light chain of the first humanization round) VH: QVQLVQSGAEVKKPGASVKVSCKASGYSFSGYFMNWVRQAPGQGLEWMGLINPYNGDSFYNQKFKGRVTMTRDTSTSTVYMELSSLRSEDTAVYYCARGLRRDFDYWGQGTLVTVSS VL: DVVMTQSPLSLPVTLGQPASISCKSSQSLLDSDGKTYLNWFQQRPGQSPRRLIYLVSELDSGVPDRFTGSGSGTDFTLKISRVEAEDVGVYYCWQGTHFPRTFGGGTKLEIKR | binds
humanized 15H3 antibody HBLF (antibody, V domains shown, HB heavy chain with LF light chain of the first humanization round) VH: QVQLVQSGAEVKKPGASVKVSCKASGYSFSGYFMNWVRQAPGQGLEWMGLINPYNGDSFYNQKFKGRVTMTRDTSTSTVYMELSSLRSEDTAVYYCARGLRRDFDYWGQGTLVTVSS VL: DVVMTQSPLSLPVTLGQPASLFCKSSQSLLDSDGKTYLNWLFQRPGQSPKRLIYLVSELDSGVPDRFTGSGSGTDFTLKISRVEAEDVGVYYCWQGTHFPRTFGGGTKLEIKR | binds
